According to paper PMC11294563:

Tests used:
[1] = biological target: PAR-2 RING domain (PAR-2 residues 40-120, core RING domain and flanking dimerization helices) (C. elegans); test: SEC-MALS; input samples from 10 to 0.5 mg/ml, 100 µl on Superdex 75 Increase 10/300 GL, 20 mM Tris-HCl, 150 mM NaCl, 0.5 mM TCEP pH 7.5, 1.0 ml/min; weight-averaged molecular weight fitted to a monomer-dimer model
[2] = biological target: PAR-2 RING domain (PAR-2 residues 40-120, core RING domain and flanking dimerization helices) (C. elegans); test: AUC; sedimentation equilibrium, interference data, 20,000 and 24,000 rpm, three PAR-2 RING concentrations, 20 mM Tris-HCl, 150 mM NaCl, 0.5 mM TCEP; global fit to a monomer-dimer model (SEDPHAT); dimer to monomers
[3] = biological target: PAR-2 RING domain (PAR-2 residues 40-120, core RING domain and flanking dimerization helices) (C. elegans); test: SEC-MALS; input sample 0.75 mg/ml, wild type compared with L109R; Superdex 75 Increase 10/300 GL, 20 mM Tris-HCl, 150 mM NaCl, 0.5 mM TCEP pH 7.5
[4] = biological target: PAR-2 RING domain (residues 40-120) L109R (C. elegans); test: as above
[5] = biological target: mNG::PAR-2(L109R) (endogenously tagged PAR-2 with L109R) (C. elegans)

PAR-2 RING domain (PAR-2 residues 40-120, core RING domain and flanking dimerization helices) (domain or fragment)
stoichiometry N [1]: 2 | Kd [2]: 0.358 µM | dimer fraction at 0.75 mg/ml [3]: 35%

PAR-2 RING domain (residues 40-120) L109R (domain or fragment)
dimer fraction at 0.75 mg/ml [4]: 5% | fold reduction in dimer affinity against wild type [4]: 10 fold

mNG::PAR-2(L109R) (endogenously tagged PAR-2 with L109R) (natural protein)
fold reduction in dimerization affinity against PAR-2(WT), from the simultaneous fit of the model to membrane and cytoplasmic concentrations in embryos (common KD^mem) [5]: 6 fold
